The source of these data is patent EP4792821A2 (Beijing Youcare Kechuang Pharmaceutical Technology Co., Ltd., dated 2026).

The labels stand for the following.
B1: Compound 19 (peptide)
peptide: Ac-FDASIEEVNRRIEESLRRIEESDRRLEAAAKK(Succinyl(4-O-cholesteryl))-NH2
SMILES: CC[C@H](C)[C@H](NC(=O)[C@H](CO)NC(=O)[C@H](C)NC(=O)[C@H](CC(=O)O)NC(=O)[C@H](Cc1ccccc1)NC(C)=O)C(=O)N[C@@H](CCC(=O)O)C(=O)N[C@@H](CCC(=O)O)C(=O)N[C@H](C(=O)N[C@@H](CC(N)=O)C(=O)N[C@@H](CCCNC(=N)N)C(=O)N[C@@H](CCCNC(=N)N)C(=O)N[C@H](C(=O)N[C@@H](CCC(=O)O)C(=O)N[C@@H](CCC(=O)O)C(=O)N[C@@H](CO)C(=O)N[C@@H](CC(C)C)C(=O)N[C@@H](CCCNC(=N)N)C(=O)N[C@@H](CCCNC(=N)N)C(=O)N[C@H](C(=O)N[C@@H](CCC(=O)O)C(=O)N[C@@H](CCC(=O)O)C(=O)N[C@@H](CO)C(=O)N[C@@H](CC(=O)O)C(=O)N[C@@H](CCCNC(=N)N)C(=O)N[C@@H](CCCNC(=N)N)C(=O)N[C@@H](CC(C)C)C(=O)N[C@@H](CCC(=O)O)C(=O)N[C@@H](C)C(=O)N[C@@H](C)C(=O)N[C@@H](C)C(=O)N[C@@H](CCCCN)C(=O)N[C@@H](CCCCNC(=O)CCC(=O)O[C@H]1CC[C@@]2(C)C(=CC[C@H]3[C@@H]4CC[C@H]([C@H](C)CCCC(C)C)[C@@]4(C)CC[C@@H]32)C1)C(N)=O)[C@@H](C)CC)[C@@H](C)CC)C(C)C
B2: Compound 31 (peptide)
peptide: Ac-SDEQVNEKINQSLAFIRRIRKLLHNEAAAKK(Succinyl(4-O-cholesteryl))-NH2
SMILES: CC[C@H](C)[C@H](NC(=O)[C@H](Cc1ccccc1)NC(=O)[C@H](C)NC(=O)[C@H](CC(C)C)NC(=O)[C@H](CO)NC(=O)[C@H](CCC(N)=O)NC(=O)[C@H](CC(N)=O)NC(=O)[C@@H](NC(=O)[C@H](CCCCN)NC(=O)[C@H](CCC(=O)O)NC(=O)[C@H](CC(N)=O)NC(=O)[C@@H](NC(=O)[C@H](CCC(N)=O)NC(=O)[C@H](CCC(=O)O)NC(=O)[C@H](CC(=O)O)NC(=O)[C@H](CO)NC(C)=O)C(C)C)[C@@H](C)CC)C(=O)N[C@@H](CCCNC(=N)N)C(=O)N[C@@H](CCCNC(=N)N)C(=O)N[C@H](C(=O)N[C@@H](CCCNC(=N)N)C(=O)N[C@@H](CCCCN)C(=O)N[C@@H](CC(C)C)C(=O)N[C@@H](CC(C)C)C(=O)N[C@@H](Cc1c[nH]cn1)C(=O)N[C@@H](CC(N)=O)C(=O)N[C@@H](CCC(=O)O)C(=O)N[C@@H](C)C(=O)N[C@@H](C)C(=O)N[C@@H](C)C(=O)N[C@@H](CCCCN)C(=O)N[C@@H](CCCCNC(=O)CCC(=O)O[C@H]1CC[C@@]2(C)C(=CC[C@H]3[C@@H]4CC[C@H]([C@H](C)CCCC(C)C)[C@@]4(C)CC[C@@H]32)C1)C(N)=O)[C@@H](C)CC
B3: Compound 33 (peptide)
peptide: Ac-SLEQVNKKINQSLKVNKKSDKLLENEAAAKK(Succinyl(4-O-cholesteryl))-NH2
SMILES: CC[C@H](C)[C@H](NC(=O)[C@H](CCCCN)NC(=O)[C@H](CCCCN)NC(=O)[C@H](CC(N)=O)NC(=O)[C@@H](NC(=O)[C@H](CCC(N)=O)NC(=O)[C@H](CCC(=O)O)NC(=O)[C@H](CC(C)C)NC(=O)[C@H](CO)NC(C)=O)C(C)C)C(=O)N[C@@H](CC(N)=O)C(=O)N[C@@H](CCC(N)=O)C(=O)N[C@@H](CO)C(=O)N[C@@H](CC(C)C)C(=O)N[C@@H](CCCCN)C(=O)N[C@H](C(=O)N[C@@H](CC(N)=O)C(=O)N[C@@H](CCCCN)C(=O)N[C@@H](CCCCN)C(=O)N[C@@H](CO)C(=O)N[C@@H](CC(=O)O)C(=O)N[C@@H](CCCCN)C(=O)N[C@@H](CC(C)C)C(=O)N[C@@H](CC(C)C)C(=O)N[C@@H](CCC(=O)O)C(=O)N[C@@H](CC(N)=O)C(=O)N[C@@H](CCC(=O)O)C(=O)N[C@@H](C)C(=O)N[C@@H](C)C(=O)N[C@@H](C)C(=O)N[C@@H](CCCCN)C(=O)N[C@@H](CCCCNC(=O)CCC(=O)O[C@H]1CC[C@@]2(C)C(=CC[C@H]3[C@@H]4CC[C@H]([C@H](C)CCCC(C)C)[C@@]4(C)CC[C@@H]32)C1)C(N)=O)C(C)C
B4: Compound 32 (peptide)
peptide: Ac-ILELVNKKIEQSLKFIEKSDKLLENEAAAKK(Succinyl(4-O-cholesteryl))-NH2
SMILES: CC[C@H](C)[C@H](NC(C)=O)C(=O)N[C@@H](CC(C)C)C(=O)N[C@@H](CCC(=O)O)C(=O)N[C@@H](CC(C)C)C(=O)N[C@H](C(=O)N[C@@H](CC(N)=O)C(=O)N[C@@H](CCCCN)C(=O)N[C@@H](CCCCN)C(=O)N[C@H](C(=O)N[C@@H](CCC(=O)O)C(=O)N[C@@H](CCC(N)=O)C(=O)N[C@@H](CO)C(=O)N[C@@H](CC(C)C)C(=O)N[C@@H](CCCCN)C(=O)N[C@@H](Cc1ccccc1)C(=O)N[C@H](C(=O)N[C@@H](CCC(=O)O)C(=O)N[C@@H](CCCCN)C(=O)N[C@@H](CO)C(=O)N[C@@H](CC(=O)O)C(=O)N[C@@H](CCCCN)C(=O)N[C@@H](CC(C)C)C(=O)N[C@@H](CC(C)C)C(=O)N[C@@H](CCC(=O)O)C(=O)N[C@@H](CC(N)=O)C(=O)N[C@@H](CCC(=O)O)C(=O)N[C@@H](C)C(=O)N[C@@H](C)C(=O)N[C@@H](C)C(=O)N[C@@H](CCCCN)C(=O)N[C@@H](CCCCNC(=O)CCC(=O)O[C@H]1CC[C@@]2(C)C(=CC[C@H]3[C@@H]4CC[C@H]([C@H](C)CCCC(C)C)[C@@]4(C)CC[C@@H]32)C1)C(N)=O)[C@@H](C)CC)[C@@H](C)CC)C(C)C
B5: Compound 10 (peptide)
peptide: Ac-KIEEVNKKIEESLKKIEESDKKLEEVNKKLEAAAKK(Succinyl(4-O-cholesteryl))-NH2
SMILES: CC[C@H](C)[C@H](NC(=O)[C@H](CCCCN)NC(C)=O)C(=O)N[C@@H](CCC(=O)O)C(=O)N[C@@H](CCC(=O)O)C(=O)N[C@H](C(=O)N[C@@H](CC(N)=O)C(=O)N[C@@H](CCCCN)C(=O)N[C@@H](CCCCN)C(=O)N[C@H](C(=O)N[C@@H](CCC(=O)O)C(=O)N[C@@H](CCC(=O)O)C(=O)N[C@@H](CO)C(=O)N[C@@H](CC(C)C)C(=O)N[C@@H](CCCCN)C(=O)N[C@@H](CCCCN)C(=O)N[C@H](C(=O)N[C@@H](CCC(=O)O)C(=O)N[C@@H](CCC(=O)O)C(=O)N[C@@H](CO)C(=O)N[C@@H](CC(=O)O)C(=O)N[C@@H](CCCCN)C(=O)N[C@@H](CCCCN)C(=O)N[C@@H](CC(C)C)C(=O)N[C@@H](CCC(=O)O)C(=O)N[C@@H](CCC(=O)O)C(=O)N[C@H](C(=O)N[C@@H](CC(N)=O)C(=O)N[C@@H](CCCCN)C(=O)N[C@@H](CCCCN)C(=O)N[C@@H](CC(C)C)C(=O)N[C@@H](CCC(=O)O)C(=O)N[C@@H](C)C(=O)N[C@@H](C)C(=O)N[C@@H](C)C(=O)N[C@@H](CCCCN)C(=O)N[C@@H](CCCCNC(=O)CCC(=O)O[C@H]1CC[C@@]2(C)C(=CC[C@H]3[C@@H]4CC[C@H]([C@H](C)CCCC(C)C)[C@@]4(C)CC[C@@H]32)C1)C(N)=O)C(C)C)[C@@H](C)CC)[C@@H](C)CC)C(C)C
B6: Compound 12 (peptide)
peptide: Ac-FDASIEEVNRRIEESLRRIEESDRRLEVNKKAGSGSGK(Succinyl(4-O-cholesteryl))-NH2
SMILES: CC[C@H](C)[C@H](NC(=O)[C@H](CO)NC(=O)[C@H](C)NC(=O)[C@H](CC(=O)O)NC(=O)[C@H](Cc1ccccc1)NC(C)=O)C(=O)N[C@@H](CCC(=O)O)C(=O)N[C@@H](CCC(=O)O)C(=O)N[C@H](C(=O)N[C@@H](CC(N)=O)C(=O)N[C@@H](CCCNC(=N)N)C(=O)N[C@@H](CCCNC(=N)N)C(=O)N[C@H](C(=O)N[C@@H](CCC(=O)O)C(=O)N[C@@H](CCC(=O)O)C(=O)N[C@@H](CO)C(=O)N[C@@H](CC(C)C)C(=O)N[C@@H](CCCNC(=N)N)C(=O)N[C@@H](CCCNC(=N)N)C(=O)N[C@H](C(=O)N[C@@H](CCC(=O)O)C(=O)N[C@@H](CCC(=O)O)C(=O)N[C@@H](CO)C(=O)N[C@@H](CC(=O)O)C(=O)N[C@@H](CCCNC(=N)N)C(=O)N[C@@H](CCCNC(=N)N)C(=O)N[C@@H](CC(C)C)C(=O)N[C@@H](CCC(=O)O)C(=O)N[C@H](C(=O)N[C@@H](CC(N)=O)C(=O)N[C@@H](CCCCN)C(=O)N[C@@H](CCCCN)C(=O)N[C@@H](C)C(=O)NCC(=O)N[C@@H](CO)C(=O)NCC(=O)N[C@@H](CO)C(=O)NCC(=O)N[C@@H](CCCCNC(=O)CCC(=O)O[C@H]1CC[C@@]2(C)C(=CC[C@H]3[C@@H]4CC[C@H]([C@H](C)CCCC(C)C)[C@@]4(C)CC[C@@H]32)C1)C(N)=O)C(C)C)[C@@H](C)CC)[C@@H](C)CC)C(C)C

The star is where a group is joined. Succinyl(4-O-cholesteryl) = CC(C)CCC[C@@H](C)[C@H]1CC[C@H]2[C@@H]3CC=C4C[C@@H](OC(=O)CCC(=O)*)CC[C@]4(C)[C@H]3CC[C@]12C Where only a bound is given, the exact number is not on record here.

Sequence of F protein of RSV A long virus strain (P12568 26-574): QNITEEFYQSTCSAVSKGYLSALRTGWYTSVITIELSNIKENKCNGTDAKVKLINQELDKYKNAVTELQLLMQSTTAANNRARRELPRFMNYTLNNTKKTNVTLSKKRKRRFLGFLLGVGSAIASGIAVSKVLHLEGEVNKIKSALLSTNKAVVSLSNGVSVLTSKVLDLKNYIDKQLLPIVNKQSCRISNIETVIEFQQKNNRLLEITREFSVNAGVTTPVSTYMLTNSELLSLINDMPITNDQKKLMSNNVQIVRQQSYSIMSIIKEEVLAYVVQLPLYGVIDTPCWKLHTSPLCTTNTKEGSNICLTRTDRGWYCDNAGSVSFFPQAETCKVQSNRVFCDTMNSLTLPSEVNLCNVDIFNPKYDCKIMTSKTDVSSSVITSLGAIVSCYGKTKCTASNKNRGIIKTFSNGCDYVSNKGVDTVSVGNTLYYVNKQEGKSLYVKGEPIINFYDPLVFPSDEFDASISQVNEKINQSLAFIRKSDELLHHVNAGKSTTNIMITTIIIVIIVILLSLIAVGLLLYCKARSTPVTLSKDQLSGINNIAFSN

This experiment has as its target F protein of RSV A long virus strain (Respiratory Syncytial Virus (RSV) A …, UniProt P12568 26-574). Kind of experiment: cell-based or functional assay.
On to B1, for which the “IC50/nM, plaque reduction, RSV A long on HEp-2 cells (Table 2, Cell fusion inhibition activity)” value was determined as 16.2 nM.

Consider B2, for which the “IC50/nM, plaque reduction, RSV A long on HEp-2 cells (Table 2, Cell fusion inhibition activity)” value was 2220 nM.

As to Ac-WDEFDKKIEEVNKKIEESLKKIEESDKKLEEVNKKLGSGSGK(Succinyl(4-O-cholesteryl))-NH2 [Compound 11], the “IC50/nM, plaque reduction, RSV A long on HEp-2 cells (Table 2, Cell fusion inhibition activity)” value was determined as 99.1 nM.

As for Ac-DDEFNQKINEVNEKIEEILKKIEESDRKLEESDKKA-NH2 [Compound 2], the “IC50/nM, plaque reduction, RSV A long on HEp-2 cells (Table 2, Cell fusion inhibition activity)” value is > 8000 nM.

As to Ac-FDASIEEVNRRIEESLRRIEESDRRLEVNKKA-NH2 [Compound 1], the “IC50/nM, plaque reduction, RSV A long on HEp-2 cells (Table 2, Cell fusion inhibition activity)” value came to 1360 nM.

B3: the “IC50/nM, plaque reduction, RSV A long on HEp-2 cells (Table 2, Cell fusion inhibition activity)” value came to 5040 nM.

In the case of Ac-DEFDKKKIEEVNKKIEESLKKIEESDKKLEEV-NH2 [Compound 3], the “IC50/nM, plaque reduction, RSV A long on HEp-2 cells (Table 2, Cell fusion inhibition activity)” value was 4430 nM.

Ac-YDELVFDASQVNEKINQSLEKIRKSDELLHNV-NH2 [Compound 23]: the “IC50/nM, plaque reduction, RSV A long on HEp-2 cells (Table 2, Cell fusion inhibition activity)” value turned out to be 2330 nM.

Regarding Ac-FDFDEFDASISQVNEKINESLAFIRLAFIRKSDELLEAAAKK-NH2 [Compound 24], the “IC50/nM, plaque reduction, RSV A long on HEp-2 cells (Table 2, Cell fusion inhibition activity)” value is 2650 nM.

As for B4, the “IC50/nM, plaque reduction, RSV A long on HEp-2 cells (Table 2, Cell fusion inhibition activity)” value came to 296 nM.

In the case of B5, the “IC50/nM, plaque reduction, RSV A long on HEp-2 cells (Table 2, Cell fusion inhibition activity)” value was found to be 18.1 nM.

For B6, the “IC50/nM, plaque reduction, RSV A long on HEp-2 cells (Table 2, Cell fusion inhibition activity)” value was determined as 28.4 nM.
